We go through 4 proteins from publication PMC8998743, “Dimerization Activity of a Disordered N-Terminal Domain from Drosophila CLAMP Protein” (International Journal of Molecular Sciences, 2022).

Series [1] deals with the molecule itself. The series is described as follows: cross-linking; thioredoxin-tagged proteins at 5 μM, increasing concentrations of glutaraldehyde, 10 min at room temperature, 20 mM HEPES pH 7.7, 150 mM NaCl, 20 mM imidazole, 1 mM β-mercaptoethanol; SDS-PAGE, silver staining.
Series [2] concerns the molecule itself. The series is described as follows: SEC; Superdex S200 size-exclusion chromatography of purified CLAMP derivatives. On the technique in general: SEC sorts molecules by how far they enter the pores of the column.
Series [3] deals with the molecule itself. The series is described as follows: SAXS; in solution, BM29 BioSAXS beamline (ESRF); molecular weight from extrapolated I0; CLAMP 1-153 at 2.3 mg/mL, CLAMP 1-113 at 1.0 and 7.0 mg/mL, CLAMP 87-153 at 2.5 and 10.0 mg/mL.

B1: thioredoxin-tagged CLAMP^1–127 (domain or fragment, D. melanogaster, UniProt Q9V9N4 1-127, looked up)
chain: MEDLTKNIIFTNAINGQPATIQYQTADGTILKQPKIEGQKTEQQPTFYYTTNGNGGTVNLAQLATTDDNKTCYIAQPVGGYNYALVNGMPLNQGAALGIATVDAQGRIQIVNQNKPIAANTISNISF
notes: Used in glutaraldehyde cross-linking with the thioredoxin tag on; source: E. coli BL21(DE3), purified
For B1, the binding result in series [1] was “binds”.

B2: CLAMP^1–127 (purified, tag cleaved) (domain or fragment, D. melanogaster, UniProt Q9V9N4 1-127, looked up)
chain: B1 chain
notes: source: E. coli BL21(DE3), purified (Ni-NTA, TEV cleavage, SOURCE15Q)
Consider B2, for which the binding result in series [2] is listed as “binds”.

B3: CLAMP^1–113 (purified, tag cleaved) (domain or fragment, D. melanogaster, UniProt Q9V9N4 1-113, looked up)
chain: MEDLTKNIIFTNAINGQPATIQYQTADGTILKQPKIEGQKTEQQPTFYYTTNGNGGTVNLAQLATTDDNKTCYIAQPVGGYNYALVNGMPLNQGAALGIATVDAQGRIQIVNQ
notes: as for B2
Usually stoichiometry N stands for a count of units in the complex or per binding partner. Consider B3, for which the “stoichiometry N” value in series [3] is 2.

B4: CLAMP^1–153 (purified, tag cleaved) (domain or fragment, D. melanogaster, UniProt Q9V9N4 1-153, looked up)
chain: MEDLTKNIIFTNAINGQPATIQYQTADGTILKQPKIEGQKTEQQPTFYYTTNGNGGTVNLAQLATTDDNKTCYIAQPVGGYNYALVNGMPLNQGAALGIATVDAQGRIQIVNQNKPIAANTISNISFKCDVCSDMFPHLALLNAHKRMHTDGE
notes: as for B2
In the case of B4, in series [3], the “stoichiometry N” value is 2.
